{
  "source": "patent US20240076396A1",
  "about": "(Regeneron, published 2024)",
  "binders": {"B1": {"name": "mAb1 (antibody, human IgG1, kappa, V domains shown)", "VH": "QVQLQESGPGLVKPSETLSLTCIVSGGSISGYFWNWIRQPPGKGLEWIGYIYYSGTTIYNPSLKSRFTISLDTSKNQFSLKLTSVTAADTAVYYCARESYDPSPRYFDHWGQGTLVTVSS", "VL": "not shown", "notes": "Human IgG1; N101D variant of CompAb1; also called N101D Variant; N101D"}},
  "key": {"[1]": {"molecular_target": "T1, human GITR expressed on the cell surface (human, UniProt Q9Y5U5 26-241)", "T1 sequence": "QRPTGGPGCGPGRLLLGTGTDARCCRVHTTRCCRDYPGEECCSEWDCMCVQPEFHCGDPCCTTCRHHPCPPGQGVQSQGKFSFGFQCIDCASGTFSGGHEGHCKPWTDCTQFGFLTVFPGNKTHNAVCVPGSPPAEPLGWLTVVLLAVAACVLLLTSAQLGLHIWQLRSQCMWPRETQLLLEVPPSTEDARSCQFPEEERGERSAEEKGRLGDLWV", "test": "cell-based or functional assay"}, "[2]": {"molecular_target": "T2, cynomolgus monkey GITR expressed on the cell surface (Macaca fascicularis (cynomolgus monkey))", "test": "cell-based or functional assay"}, "[3]": {"molecular_target": "T3, Jurkat/hCD20 cells (human CD20, no GITR; negative control cell line) (human, UniProt P11836 1-297)", "T3 sequence (looked up)": "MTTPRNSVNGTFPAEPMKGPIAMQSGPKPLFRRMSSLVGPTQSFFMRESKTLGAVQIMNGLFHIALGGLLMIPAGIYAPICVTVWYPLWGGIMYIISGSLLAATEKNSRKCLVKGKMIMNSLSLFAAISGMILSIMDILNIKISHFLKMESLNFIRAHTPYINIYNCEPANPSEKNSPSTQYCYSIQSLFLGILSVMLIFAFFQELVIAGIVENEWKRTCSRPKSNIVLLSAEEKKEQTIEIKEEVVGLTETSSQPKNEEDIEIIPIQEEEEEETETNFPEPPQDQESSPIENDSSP", "test": "cell-based or functional assay"}, "[4]": {"molecular_target": "T1, human GITR expressed on the cell surface", "test": "cell-based or functional assay", "remark": "listed apart in the source"}, "[5]": {"molecular_target": "T2, cynomolgus monkey GITR expressed on the …", "test": "cell-based or functional assay", "remark": "listed apart in the source"}, "[6]": {"molecular_target": "T4, hGITR.mmH (soluble monomeric recombinant human GITR ectodomain protein) (human)", "T4 construct": "also called monomeric human GITR", "T4 chain": "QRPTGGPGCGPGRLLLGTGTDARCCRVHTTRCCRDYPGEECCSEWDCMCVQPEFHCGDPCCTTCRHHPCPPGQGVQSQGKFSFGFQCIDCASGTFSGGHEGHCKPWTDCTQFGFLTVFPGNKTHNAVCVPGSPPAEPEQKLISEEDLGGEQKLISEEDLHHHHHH", "test": "SPR Biacore T-200; purified antibody captured on anti-human Fc; 10 nM hGITR.mmH", "method": "For purified antibodies, Biacore experiments were performed as follows. Using a Biacore T-200 instrument, antibodies were captured for 30 seconds at a flow rate of 8 uL/min on a CM5 anti-humanFc-coupled surface. Approximately 120 RU of each antibody were captured. 10 nM hGITR.mmH (soluble monomeric hGITR, SEQ ID NO: 45) or 5 nM hGITR.mFc (dimeric Macaca fasicularis GITR, SEQ ID NO: 46) were injected over this surface for 5 minutes at a flow rate of 50 uL/min. Dissociation was measured for 10 min. The KD and t_{1/2} were calculated by fitting the double-referenced sensorgrams to a 1:1 binding model."}, "[7]": {"molecular_target": "T4, hGITR.mmH (soluble monomeric …)", "test": "blocking ELISA: 1.5 nM hGITR.mmH pre-incubated with antibody, binding to plate-coated hGITR-L"}, "[8]": {"molecular_target": "T2, cynomolgus monkey GITR expressed on the …", "test": "flow cytometry, AF647-conjugated antibody on CD4+ CD69+ cynomolgus monkey primary T cells, donor 58947", "method": "FIG. 7 depicts antibody binding to CD69+ cynomolgus monkey primary T-cells. Primary cynomolgus monkey T-cells from 4 separate donors were stimulated in vitro with anti-CD2/anti-CD3/anti-CD28-coated beads. Cell-surface binding of AF647-conjugated mAb1 and AF647-conjugated IgG1 isotype control at a range of concentrations (8 pM to 200 nM) on CD69⁺ and CD69⁻ cynomolgus monkey primary CD4⁺ and CD8⁺ T-cells was detected using flow cytometry. Fluorescence intensity was plotted as geometric MFI. Mf, Macaca fascicularis (cynomolgus monkey)\nPeripheral blood mononuclear cells (PBMC) were isolated from human or cynomolgus monkey whole blood (4 donors each) using density centrifugation through Ficoll-Paque PLUS in SepMate tubes (for human PBMC) or 50 mL conical tubes (for cynomolgus monkey PBMC) and transferred to a fresh conical tube for incubation in Red Blood Cell (RBC) Lysis Buffer. […] After 4 days, activation beads were removed from the culture using a MACSiMAG Separator, and cells were collected and counted.\nFlow cytometry was used to evaluate mAb1 binding to human or cynomolgus monkey T-cells in activated PBMC. […] Data were analyzed with Flowio software. For EC₅₀ determinations, measured geometric MFI values were analyzed using a 4-parameter logistic equation over a 12-point response curve with GraphPad Prism."}},
  "data": [
    {"binder": "B1", "values": [
      {"measurement": "EC50, NFAT-luciferase in Jurkat/NFAT-Luc/hFcγR3a effector cells with Jurkat/hCD20/hGITR target cells", "setting": "[1]", "result": 0.032, "unit": "nM"},
      {"measurement": "Fold Change in Activity, NFAT-luciferase in Jurkat/NFAT-Luc/hFcγR3a effector cells with Jurkat/hCD20/hGITR target cells", "setting": "[1]", "result": 38, "unit": "fold"},
      {"measurement": "EC50, NFAT-luciferase in Jurkat/NFAT-Luc/MfFcγR3a effector cells with Jurkat/hCD20/MfGITR target cells", "setting": "[2]", "result": 0.016, "unit": "nM"},
      {"measurement": "Fold Change in Activity, NFAT-luciferase in Jurkat/NFAT-Luc/MfFcγR3a effector cells with Jurkat/hCD20/MfGITR target cells", "setting": "[2]", "result": 23.9, "unit": "fold"},
      {"measurement": "Fold Change in Activity, NFAT-luciferase in Jurkat/NFAT-Luc/MfFcγR3a effector cells with Jurkat/hCD20 target cells", "setting": "[3]", "result": 1.02, "unit": "fold"},
      {"measurement": "Fold Change in Activity, NFAT-luciferase in Jurkat/NFAT-Luc/hFcγR3a effector cells with Jurkat/hCD20 target cells", "setting": "[3]", "result": 1.01, "unit": "fold"},
      {"measurement": "EC50, ADCC against Jurkat/hCD20/hGITR, Donor 6500V NK cells", "setting": "[4]", "result": 0.0122, "unit": "nM"},
      {"measurement": "EC50, ADCC against Jurkat/hCD20/hGITR, Donor 6700R NK cells", "setting": "[4]", "result": 0.013, "unit": "nM"},
      {"measurement": "EC50, ADCC against Jurkat/hCD20/MfGITR, Donor 6500V NK cells", "setting": "[5]", "result": 0.0108, "unit": "nM"},
      {"measurement": "EC50, ADCC against Jurkat/hCD20/MfGITR, Donor 6700R NK cells", "setting": "[5]", "result": 0.0121, "unit": "nM"},
      {"measurement": "Kd", "setting": "[6]", "result": 1.18, "unit": "nM"},
      {"measurement": "t1/2", "setting": "[6]", "result": 7.58, "unit": "min"},
      {"measurement": "IC50", "setting": "[7]", "result": 6.66, "unit": "nM"},
      {"measurement": "EC50 (read off the curve)", "setting": "[8]", "result": "~3", "unit": "nM"}
    ]}
  ]
}
